According to article PMC10164138 (Structure (London, England : 1993), 2023):

Target: the molecule itself
Experiment: cryo-EM structure

B1: CfaB, major pilin subunit of CFA/I pili (natural protein, enterotoxigenic Escherichia coli (ETEC), UniProt P0CK93 24-170, looked up)
chain: VEKNITVTASVDPAIDLLQADGNALPSAVKLAYSPASKTFESYRVMTQVHTNDATKKVIVKLADTPQLTDVLNSTVQMPISVSWGGQVLSTTAKEFEAAALGYSASGVNGVSSSQELVISAAPKTAGTAPTAGNYSGVVSLVMTLGS
binding result: binds
